Results as given in patent US20160303253A1.

Target: Human trophoblast cell-surface antigen (TROP-2) (human) (UniProt P09758)
Assay: cell-based or functional assay

Sequence of Human trophoblast cell-surface antigen (TROP-2) (human) (P09758 27-323): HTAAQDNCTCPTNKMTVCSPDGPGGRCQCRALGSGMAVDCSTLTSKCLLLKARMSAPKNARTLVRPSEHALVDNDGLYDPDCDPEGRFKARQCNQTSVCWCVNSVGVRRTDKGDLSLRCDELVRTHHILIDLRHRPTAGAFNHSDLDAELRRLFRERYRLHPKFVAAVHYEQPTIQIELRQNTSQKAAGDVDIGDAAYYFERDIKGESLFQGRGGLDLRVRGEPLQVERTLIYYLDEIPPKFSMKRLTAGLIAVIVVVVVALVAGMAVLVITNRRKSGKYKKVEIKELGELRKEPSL

hRS7-CL2A-SN-38 (antibody) showed an ADC/free SN-38 ratio of IC50, in vitro cytotoxicity, BxPC-3 of 2.8, an ADC/free SN-38 ratio of IC50, in vitro cytotoxicity, COLO 205 of 1.91 and an ADC/free SN-38 ratio of IC50, in vitro cytotoxicity, Calu-3 of 1.39. It also gave an ADC/free SN-38 ratio of IC50, in vitro cytotoxicity, Capan-1 of 2, an ADC/free SN-38 ratio of IC50, in vitro cytotoxicity, PC-3 of 2.28 and an ADC/free SN-38 ratio of IC50, in vitro cytotoxicity, SK-MES-1 of 2.69.
